Measured values from publication PMC12452593.

Target: EV-D68 US/MO/14-18947 viral particles (Enterovirus D68)

Substance: secreted MFSD6-Fc microbody (from UniProt Q6ZSS7 153-280) (Fc fusion)
- survival rate of neonatal ICR mice (n = 9 per group) given 1.0 × 10^7 TCID50 of EV-D68 US/MO/14-18947 pre-incubated with 15 ug secMFSD6 Mb (secCtl Mb group: 11.11%): 88.9%
